Assay results published in publication PMC7461331, “Stability of Begomoviral pathogenicity determinant βC1 is modulated by mutually antagonistic SUMOylation and SIM interactions” (BMC Biology, 2020).

B1: 6X HIS tagged AtSUMO3, recombinant, refolded (natural protein, Arabidopsis thaliana, UniProt Q9FLP5 1-111, looked up)
chain: MSNPQDDKPIDQEQEAHVILKVKSQDGDEVLFKNKKSAPLKKLMYVYCDRRGLKLDAFAFIFNGARIGGLETPDELDMEDGDVIDACRAMSGGLRANQRQWSYMLFDHNGL
notes: 15N-labelled; not shown: His6, N-terminal, kept
B2: 6X HIS tagged AtSUMO5, recombinant, refolded (natural protein, Arabidopsis thaliana, UniProt Q8VZI7 1-108, looked up)
chain: MVSSTDTISASFVSKKSRSPETSPHMKVTLKVKNQQGAEDLYKIGTHAHLKKLMSAYCTKRNLDYSSVRFVYNGREIKARQTPAQLHMEEEDEICMVMELGGGGPYTP
notes: as for B1

Target: the molecule itself
Test: SEC; size exclusion profile of recombinant NiNTA purified 6X HIS SUMO proteins on a SD75 column, void volume 40.25 ml; AtSUMO3 and AtSUMO5 after refolding

Protein | binding result
B1 | binds
B2 | binds
